In test [1] the target is ELL2^Occ–(Gly-Ser)4-AFF4^ELLBow fusion (UniProt Q9UHB7). Nature of the test: SEC. (Size exclusion chromatography separates by hydrodynamic size, large species first.)
For test [2], the target named is Sumo-ELL2(519-640) (human) (UniProt O00472). Nature of the test: fluorescence polarisation. (Fluorescence polarisation rises when a labelled molecule tumbles more slowly, as on binding a larger partner.)
Test [3] addresses GST-ELL2 (519-640) H608E (human, UniProt O00472 519-640, H608E). Nature of the test: pull-down.
Test [4] deals with GST-ELL2 (519-640) N619A (human, UniProt O00472 519-640, N619A). Nature of the test: pull-down.
In test [5] the target is GST-ELL2 (519-640) K625T (human, UniProt O00472 519-640, K625T). The test is described as follows: pull-down.
Test [6] has as its target GST-ELL2 (519-640) H559E (human, UniProt O00472 519-640, H559E). Nature of the test: pull-down.
Test [7] concerns the target Sumo-ELL2(519-640) (human, UniProt O00472 519-640). The test is described as follows: fluorescence polarisation.

For orientation: stoichiometry N means the number of molecules, sites or subunits per partner or assembly. The term Kd denotes the equilibrium constant for the complex coming apart.

Positions count from the first letter of the chain named. Names and notes keep the numbering of the source. No end group written: not given here. A value given as a limit tells only on which side of the number the result lay.

Sequence of Sumo-ELL2(519-640) (O00472 519-640): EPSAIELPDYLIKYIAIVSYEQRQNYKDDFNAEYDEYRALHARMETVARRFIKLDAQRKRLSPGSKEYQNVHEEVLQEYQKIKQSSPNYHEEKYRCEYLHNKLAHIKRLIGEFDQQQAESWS
Sequence of GST-ELL2 (519-640) N619A (O00472 519-640 N619A): as the sequence (O00472 519-640) above, with N101A counted along it
Sequence of Sumo-ELL2(519-640) (human) (O00472 519-640): as the sequence (O00472 519-640) above
Sequence of GST-ELL2 (519-640) K625T (O00472 519-640 K625T): as the sequence (O00472 519-640) above, with K107T counted along it
Sequence of GST-ELL2 (519-640) H608E (O00472 519-640 H608E): as the sequence (O00472 519-640) above, with H90E counted along it
Sequence of GST-ELL2 (519-640) H559E (O00472 519-640 H559E): as the sequence (O00472 519-640) above, with H41E counted along it

On to “ELL2^Occ–(Gly-Ser)4-AFF4^ELLBow fusion (from UniProt Q9UHB7 301-351)”, for which the stoichiometry N in test [1] was determined as 2.
With “AFF4^ELLBow α1 mutant D317P/E317P (301-351) (from UniProt Q9UHB7 301-351) (peptide)”, the fold reduction of affinity against wild type in test [2] came to 10 fold.

B1: His6-tagged wild-type AFF4^ELLBow (AFF4 301-351) (peptide)
chain: PSQPLDASASGDVSCVDEILKEMTHSWPPPLTAIHTPCKTEPSKFPFPTKE
Take B1: the binding result in test [3], in test [4], in test [5] and in test [6] was “binds” each time. In addition, in test [7], the Kd came out at 86 nM.

B2: AFF4^ELLBow L331D (301-351) (peptide)
chain: B1 chain with L31D
As for B2, in test [7], the “fold reduction of affinity against wild type” value (“fold reduction of affinity” below) is approximately 20 fold.

B3: AFF4^ELLBow I334D (301-351) (peptide)
chain: B1 chain with I34D
For the molecule B3, in test [7], the “fold reduction of affinity” value was 8 fold.

B4: AFF4^ELLBow I319D/L320D/M323D (301-351) (peptide)
chain: B1 chain with I19D, L20D, M23D
In the case of B4, in test [7], the Kd is more than 3000 nM.

B5: AFF4^ELLBow I319D/L320D (301-351) (peptide)
chain: B1 chain with I19D, L20D
For the molecule B5, the “fold reduction of affinity” value in test [7] was more than 25 fold.

B6: AFF4^ELLBow P342D (301-351) (peptide)
chain: B1 chain with P42D
Turning to B6, the “fold reduction of affinity” value in test [7] was 3 fold.

B7: AFF4^ELLBow E322H (301-351) (peptide)
chain: B1 chain with E22H
Regarding B7, the “fold reduction of affinity” value in test [7] is less than 2 fold.

B8: AFF4^ELLBow F345D/F347D (301-351) (peptide)
chain: B1 chain with F45D, F47D
Take B8: the “fold reduction of affinity” value in test [7] is less than 2 fold.

B9: AFF4^ELLBow double 328-329 Pro-Gly mutant (301-351) (peptide)
chain: B1 chain with P28G, P29G
As to B9, in test [7], the “fold reduction of affinity” value was determined as 3 fold.

B10: AFF4^ELLBow M323D (301-351) (peptide)
chain: B1 chain with M23D
Regarding B10, the “fold reduction of affinity” value in test [7] is more than 25 fold.

B11: AFF4^ELLBow W327D (301-351) (peptide)
chain: B1 chain with W27D
As for B11, in test [7], the “fold reduction of affinity” value stood at 4 fold.

B12: fluorescently labeled AFF1 peptide (residues 358-390) (peptide)
peptide: EILKEMTHSWPPPLTAIHTPSTAEPSKFPFPTK
modifications: also: fluorescent label, site not given here
Turning to B12, in test [7], the binding result was “binds”.

(Values after article doi:10.1101/068262 (bioRxiv, 2016).)
